Where two headings read alike, the source gives them in different places.
B1: hu333-4B2-IgG1mc (antibody)
heavy: EVQLVESGGGLVQPGGSLRLSCAVSGFSLTSYGVHWVRQAPGKGLEWVAVIWAGGSTNYADSVKGRFTISKDTSKNTVYLQMNSLRAEDTAVYYCAKPYGTSAMDYWGQGTLVTVSSASTKGPSVFPLAPSSKSTSGGTAALGCLVKDYFPEPVTVSWNSGALTSGVHTFPAVLQSSGLYSLSSVVTVPSSSLGTQTYICNVNHKPSNTKVDKKVEPKSCDKTHTCPPCPAPPAAAPSVFLFPPKPKDTLMISRTPEVTCVVVDVSHEDPEVKFNWYVDGVEVHNAKTKPREEQYNSTYRVVSVLTVLHQDWLNGKEYKCKVSNKALAAPIEKTISKAKGQPREPQVYTLPPSRDELTKNQVSLTCLVKGFYPSDIAVEWESNGQPENNYKTTPPVLDSDGSFFLYSKLTVDKSRWQQGNVFSCSVMHEALHNHYTQKSLSLSPGK
light: DIQMTQSPSSLSASVGDRVTITCKASQDVGIVVAWYQQKPGKAPKLLIYWASIRHTGVPSRFSGSGSGTEFTLTISSLQPDDFATYYCQQYSNYPLYTFGQGTKVEIKRTVAAPSVFIFPPSDEQLKSGTASVVCLLNNFYPREAKVQWKVDNALQSGNSQESVTEQDSKDSTYSLSSTLTLSKADYEKHKVYACEVTHQGLSSPVTKSFNRGEC
notes: also called hu333-4B2-IgGlmc
B2: hu333-4A2-IgG1mc (antibody)
heavy: EVQLVESGGGLVQPGGSLRLSCAVSGFSLTSYGVHWVRQAPGKGLEWVAVIWAGGSTNYVDSVKGRFTISKDNAKNTVYLQMNSLRAEDTAVYYCAKPYGTSAMDYWGQGTLVTVSSASTKGPSVFPLAPSSKSTSGGTAALGCLVKDYFPEPVTVSWNSGALTSGVHTFPAVLQSSGLYSLSSVVTVPSSSLGTQTYICNVNHKPSNTKVDKKVEPKSCDKTHTCPPCPAPPAAAPSVFLFPPKPKDTLMISRTPEVTCVVVDVSHEDPEVKFNWYVDGVEVHNAKTKPREEQYNSTYRVVSVLTVLHQDWLNGKEYKCKVSNKALAAPIEKTISKAKGQPREPQVYTLPPSRDELTKNQVSLTCLVKGFYPSDIAVEWESNGQPENNYKTTPPVLDSDGSFFLYSKLTVDKSRWQQGNVFSCSVMHEALHNHYTQKSLSLSPGK
light: DIQMTQSPSSLSASVGDRVTITCKASQDVGIVVAWYQQKPGKAPKLLIYWASIRHTGVPSRFSGSGSGTEFTLTISSLQPDDFATYYCQQYSNYPLYTFGQGTKVEIKRTVAAPSVFIFPPSDEQLKSGTASVVCLLNNFYPREAKVQWKVDNALQSGNSQESVTEQDSKDSTYSLSSTLTLSKADYEKHKVYACEVTHQGLSSPVTKSFNRGEC
notes: also called hu333-4A2-IgGlmc
B3: hu333-4B2-IgG1mf (antibody)
heavy: EVQLVESGGGLVQPGGSLRLSCAVSGFSLTSYGVHWVRQAPGKGLEWVAVIWAGGSTNYADSVKGRFTISKDTSKNTVYLQMNSLRAEDTAVYYCAKPYGTSAMDYWGQGTLVTVSSASTKGPSVFPLAPSSKSTSGGTAALGCLVKDYFPEPVTVSWNSGALTSGVHTFPAVLQSSGLYSLSSVVTVPSSSLGTQTYICNVNHKPSNTKVDKKVEPKSCDKTHTCPPCPAPPAAGPSVFLFPPKPKDTLMISRTPEVTCVVVDVSHEDPEVKFNWYVDGVEVHNAKTKPREEQYNSTYRVVSVLTVLHQDWLNGKEYKCKVSNKALAAPIEKTISKAKGQPREPQVYTLPPSRDELTKNQVSLTCLVKGFYPSDIAVEWESNGQPENNYKTTPPVLDSDGSFFLYSKLTVDKSRWQQGNVFSCSVMHEALHNHYTQKSLSLSPGK
light: DIQMTQSPSSLSASVGDRVTITCKASQDVGIVVAWYQQKPGKAPKLLIYWASIRHTGVPSRFSGSGSGTEFTLTISSLQPDDFATYYCQQYSNYPLYTFGQGTKVEIKRTVAAPSVFIFPPSDEQLKSGTASVVCLLNNFYPREAKVQWKVDNALQSGNSQESVTEQDSKDSTYSLSSTLTLSKADYEKHKVYACEVTHQGLSSPVTKSFNRGEC
B4: hu333-1A Fab (Fab)
heavy (part 1 of 2): EVQLVESGGGLVQPGGSLRLSCAVSGFSLTSYGVHWVRQAPGKGLEWVAVIWAGGSTNYNSALMSRLTISKDNAKNSVYLQMNSLRAEDTAVYYCAKPYGNSAMDYWGQGTLVTVSS
heavy (part 2 of 2): HHHHHHHH
light: DIQMTQSPSTLSASVGDRVTITCKASQDVGIVVAWYQQKPGKAPKLLIYWASIRHTGVPSRFSGSGSGTEFTLTISSLQPDDFATYYCQQYSNYPLYTFGQGTKLEIK
notes: not shown: human IgG2 CH1 (printed IgG2a-CH1); human constant region of kappa chain
B5: hu333-4A2 Fab (Fab)
heavy (part 1 of 2): EVQLVESGGGLVQPGGSLRLSCAVSGFSLTSYGVHWVRQAPGKGLEWVAVIWAGGSTNYVDSVKGRFTISKDNAKNTVYLQMNSLRAEDTAVYYCAKPYGTSAMDYWGQGTLVTVSS
heavy (part 2 of 2): HHHHHH
light: DIQMTQSPSSLSASVGDRVTITCKASQDVGIVVAWYQQKPGKAPKLLIYWASIRHTGVPSRFSGSGSGTEFTLTISSLQPDDFATYYCQQYSNYPLYTFGQGTKVEIK
notes: not shown: human IgG1-CH1; human constant region of kappa chain
B6: hu333-4B2 Fab (Fab)
heavy (part 1 of 2): EVQLVESGGGLVQPGGSLRLSCAVSGFSLTSYGVHWVRQAPGKGLEWVAVIWAGGSTNYADSVKGRFTISKDTSKNTVYLQMNSLRAEDTAVYYCAKPYGTSAMDYWGQGTLVTVSS
heavy (part 2 of 2): HHHHHH
light: DIQMTQSPSSLSASVGDRVTITCKASQDVGIVVAWYQQKPGKAPKLLIYWASIRHTGVPSRFSGSGSGTEFTLTISSLQPDDFATYYCQQYSNYPLYTFGQGTKVEIK
notes: as for B5

Tests used:
[1] = molecular target: T1, cynomolgus monkey PD-L1/His (cynomolgus monkey (Macaca fascicularis), UniProt G7PSE7 19-239); experiment: ELISA, 200 ng PD-L1 protein coated per well
T1 construct: not shown: His tag
Procedure: The monkey PD-L1/His and murine PD-L1/His were expressed and purified in a similar way to the human PD-L1/His as described earlier. […] The synthesized full length mAb was named as Y1-IgG1mc. The ELISA assay was performed essentially in the same way as described in the previous section. Briefly, 200 ng of PD-L1 protein was coated on each well of Nunc MaxiSorp ELISA plate (Cat. No. 442404, Nunc, Thermo Fisher). After washing and blocking, indicated concentrations of anti-PD-L1 mAbs were added and incubated at room temperature for 1 hour. After washing, the bound anti-PD-L1 mAbs were detected using a HRP-conjugated goat anti-human Fc antibody (Cat. No. A0170, Sigma).

[2] = molecular target: T2, full length human PD-L1 expressed on cells (human, UniProt Q9NZQ7 19-290); experiment: FACS competition with CD80/Fc on HEK293/PD-L1 cells
T2 construct: in HEK293/OS8/PD-L1 co-expressed with the membrane anti-CD3 scFv OS8; also called HEK293/PD-L1; HEK293/OS8/PD-L1

[3] = molecular target: T2, full length human PD-L1 expressed on …; experiment: cell-based or functional assay
[4] = molecular target: T2, full length human PD-L1 expressed on …; experiment: FACS competition with PD-1/Fc on HEK293/PD-L1 cells
[5] = molecular target: T2, full length human PD-L1 expressed on …; experiment: FACS competition with CD80/Fc on HEK293/PD-L1 cells; remark: listed apart in the source
[6] = molecular target: T2, full length human PD-L1 expressed on …; experiment: FACS competition with PD-1/Fc on HEK293/PD-L1 cells; remark: listed apart in the source
human PD-L1-ECD/His [7] = molecular target: T3, human PD-L1-ECD/His (human, UniProt Q9NZQ7 19-238); experiment: SPR (BIAcore T-200), PD-L1/His on CM5 chip, Fab injected
T3 construct: also called PD-L1/His; human PD-L1/His
Procedure: (§1) For affinity determinations of anti-PD-L1 Fabs, SPR assays were performed using BIAcore™ T-200 (GE Life Sciences). Briefly, human PD-L1/His was coupled to an activated CM5 biosensor chip (Cat. No. BR100530, GE Life Sciences) to achieve approximately 100-200 response units (RU), followed by blocking un-reacted groups with 1 M ethanolamine. A serial dilutions of 0.12 nM to 90 nM Fab samples were injected, mixed into the SPR running buffer (10 mM HEPES, 150 mM NaCl, 0.05% Tween20, pH7.4) at 30 µL/minute, and binding responses on human PD-L1/His were calculated by substracting of RU from a blank flow-cell. Association rates (kₒₙ) and dissociation rates (koff) were calculated using the one-to-one Langmuir binding model (BIA Evaluation Software, GE Life Sciences). The equilibrium dissociation constant (Kd) was calculated as the ratio koff/kₒₙ.

human PD-L1-ECD/His [8] = molecular target: T3, human PD-L1-ECD/His; experiment: SPR (BIAcore T-200), Fab, human PD-L1; koff may be too slow to measure
Procedure: as §1
(§2) For affinity determinations of anti-PD-L1 Fabs, SPR assays were conducted using BIAcore™ T-200 instrument (GE Life Sciences, Shanghai, China) as described earlier. Association rates (kₒₙ) and dissociation rates (koff) were calculated using the one-to-one Langmuir binding model (BIA Evaluation Software, GE Life Sciences). The equilibrium dissociation constant (Kd) was calculated as the ratio koff/kₒₙ.

[9] = molecular target: T1, cynomolgus monkey PD-L1/His; experiment: SPR (BIAcore T-200), Fab, monkey PD-L1
human PD-L1-ECD/His [10] = molecular target: T3, human PD-L1-ECD/His; experiment: SPR (BIAcore T-200), Fab, human PD-L1
Procedure: as §1, §2

[11] = molecular target: T2, full length human PD-L1 expressed on …; experiment: cell-based or functional assay; remark: listed apart in the source
human PD-L1-ECD/His [12] = molecular target: T3, human PD-L1-ECD/His; experiment: SPR (BIAcore T-200), PD-L1/His on CM5 chip, Fab injected; koff may be too slow to measure
Procedure: as §1

[13] = molecular target: T1, cynomolgus monkey PD-L1/His; experiment: SPR (BIAcore T-200), Fab, monkey PD-L1; koff may be too slow to measure

T2 sequence (Q9NZQ7 19-290 limits assumed): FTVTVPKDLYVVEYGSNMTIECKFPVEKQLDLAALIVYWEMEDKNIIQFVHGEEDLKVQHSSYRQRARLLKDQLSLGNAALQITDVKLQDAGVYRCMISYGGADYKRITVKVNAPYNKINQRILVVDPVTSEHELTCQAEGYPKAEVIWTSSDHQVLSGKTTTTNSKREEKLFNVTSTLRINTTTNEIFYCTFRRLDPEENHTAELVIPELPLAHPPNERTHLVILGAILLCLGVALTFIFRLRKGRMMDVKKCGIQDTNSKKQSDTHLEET
T1 sequence (G7PSE7 entry or part of it): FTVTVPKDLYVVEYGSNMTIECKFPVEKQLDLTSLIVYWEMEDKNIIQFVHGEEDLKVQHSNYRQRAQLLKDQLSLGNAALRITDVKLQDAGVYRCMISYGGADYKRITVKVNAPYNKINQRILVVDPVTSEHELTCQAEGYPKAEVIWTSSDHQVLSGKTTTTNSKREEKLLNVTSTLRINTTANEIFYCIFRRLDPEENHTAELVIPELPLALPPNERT
T3 sequence (Q9NZQ7 19-238): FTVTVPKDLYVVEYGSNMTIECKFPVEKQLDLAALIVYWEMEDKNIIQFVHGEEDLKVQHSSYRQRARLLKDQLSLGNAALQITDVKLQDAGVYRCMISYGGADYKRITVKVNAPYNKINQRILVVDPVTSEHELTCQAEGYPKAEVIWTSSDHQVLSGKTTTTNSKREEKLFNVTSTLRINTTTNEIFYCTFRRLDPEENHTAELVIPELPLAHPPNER

Row | Binder | binding result [1] | IC50 [5] | IC50 [6] | Kd (human PD-L1-ECD/His [7]) | kon (human PD-L1-ECD/His [7]) | koff (human PD-L1-ECD/His [8]) | Kd [9] | kon [9] | Kd (human PD-L1-ECD/His [10]) | kon (human PD-L1-ECD/His [10]) | IL-2 release in HuT78/P3Z, IC50 [11] | IL-2 release in HuT78/PD-1, EC50 [11] | koff (human PD-L1-ECD/His [12]) | koff [13] | further results
1 | B1 | binds |  |  |  |  |  |  |  |  |  |  |  |  |  | 
2 | B2 | binds |  |  |  |  |  |  |  |  |  |  |  |  |  | 
3 | B3 | binds |  |  |  |  |  |  |  |  |  |  |  |  |  | 
4 | B4 |  |  |  |  |  |  |  |  |  |  |  |  |  |  | IC50 [2]: 0.049 µg/mL; IL-2 release in HuT78/P3Z, IC50 [3]: 0.012 µg/mL; IL-2 release in HuT78/PD-1, EC50 [3]: 0.066 µg/mL; IC50 [4]: 0.057 µg/mL
5 | B5 |  | 0.045 µg/mL | 0.05 µg/mL | 2.65 pM | 3.88e+06 M⁻¹ s⁻¹ | 1.03e-05 s⁻¹ | 2.91 pM | 3.19e+06 M⁻¹ s⁻¹ | 2.65 pM | 3.88e+06 M⁻¹ s⁻¹ | 0.005 µg/mL | 0.05 µg/mL | 1.03e-05 s⁻¹ | 9.3e-06 s⁻¹ | 
6 | B6 |  | 0.062 µg/mL | 0.053 µg/mL | 3.5 pM | 3.78e+06 M⁻¹ s⁻¹ | 1.32e-05 s⁻¹ | 2.5 pM | 3.2e+06 M⁻¹ s⁻¹ | 3.5 pM | 3.78e+06 M⁻¹ s⁻¹ | 0.016 µg/mL | 0.058 µg/mL | 1.32e-05 s⁻¹ | 8e-06 s⁻¹ | 

From patent publication US20230279117A1 (published 2023)
